Data: CN116041515A (NANJING IASO BIOTHERAPEUTICS TECH CO LTD, dated 2023)

T1: Recombinant biotinylated Human BAFF-R Protein, Kactus BAF-HM40RB (human, UniProt Q96RJ3 1-78, biotinylated)
T1 construct: Bought; also called Kactus BAFF-R-his-Bio; Kactus BAFFR-his bio; not shown: his tag and biotin label
T1 sequence (looked up): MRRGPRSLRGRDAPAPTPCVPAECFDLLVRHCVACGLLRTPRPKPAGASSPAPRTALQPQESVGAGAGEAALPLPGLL

T2: Recombinant biotinylated Human CD19 Protein, Kactus CD2-HE121 (human, UniProt P15391 20-291, biotinylated)
T2 construct: Unrelated control antigen; also called Kactus-CD19-Fc; not shown: Fc by the short name
T2 sequence (looked up): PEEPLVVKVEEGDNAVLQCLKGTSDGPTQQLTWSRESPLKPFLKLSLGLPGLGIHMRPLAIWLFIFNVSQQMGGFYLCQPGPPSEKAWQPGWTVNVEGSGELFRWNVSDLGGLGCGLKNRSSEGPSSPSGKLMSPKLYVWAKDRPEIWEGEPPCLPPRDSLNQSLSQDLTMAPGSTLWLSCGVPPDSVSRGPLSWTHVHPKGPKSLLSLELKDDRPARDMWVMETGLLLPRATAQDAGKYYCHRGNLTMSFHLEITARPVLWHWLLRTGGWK

T3: Biotinylated Human CD27 Ligand, HIS, Avitag, ACRObiosystem CDL-H82Q9 (human, UniProt P32970 39-193, limits assumed, biotinylated)
T3 construct: Unrelated control antigen; also called ACRO-CD70-his; Acro-CD70-his; not shown: HIS tag and Avitag
T3 sequence (looked up): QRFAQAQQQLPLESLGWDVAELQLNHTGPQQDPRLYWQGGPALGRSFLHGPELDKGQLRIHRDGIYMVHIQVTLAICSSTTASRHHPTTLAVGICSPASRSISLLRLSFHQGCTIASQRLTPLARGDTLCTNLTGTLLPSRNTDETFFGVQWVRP

B1: Clone 10 IgG (Fc fusion)
chain: QSALTQPASVSGSPGQSITISCTGTSSDVGGYNYVSWYQQHPGKAPKLMIYEVSNRPSGVSNRFSGSKSGNTASLTISGLQAEDEADYYCSSYTSSSTYVFGTGTKVTVLGSRGGGGSGGGGSGGGGSLEQITLKESGPTLVKPTQTLTLTCTFSGFSLSTSGVGVGWIRQPPGKALEWLALIYWDDDKRYSPSLKSRLTITKDTSKNQVVLTMTNMDPVDTATYYCARYAGQYSGMWPWDYWGQGTLVTVSS
notes: also called anti-BAFF-R IgG; not shown: human IgG4 Fc
B2: Clone 10 (phage-displayed scFv monoclonal) (scFv)
scFv: B1 chain
notes: the phage coat protein fusion is not described; also called #10号克隆

Columns and labels:
[1] = biological target: T4, Streptavidin, Pierce 21125 (UniProt P22629 37-163, limits assumed); assay: ELISA with purified IgG-form antibody
T4 construct: Control protein coated on the plate; also called SA; Strepavidin
T4 sequence (P22629 37-163 limits assumed): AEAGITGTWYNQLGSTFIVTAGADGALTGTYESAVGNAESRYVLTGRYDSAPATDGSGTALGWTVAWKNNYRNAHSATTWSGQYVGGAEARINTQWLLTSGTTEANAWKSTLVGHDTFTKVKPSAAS

[2] = biological target: T5, human-IL10-his-Bio, Kactus IL1-HM410B (human, UniProt P22301 19-178, biotinylated); assay: ELISA with purified IgG-form antibody
T5 construct: Unrelated control antigen; also called Kactus-IL10-Bio-his; not shown: his tag and biotin label
T5 sequence (P22301 19-178): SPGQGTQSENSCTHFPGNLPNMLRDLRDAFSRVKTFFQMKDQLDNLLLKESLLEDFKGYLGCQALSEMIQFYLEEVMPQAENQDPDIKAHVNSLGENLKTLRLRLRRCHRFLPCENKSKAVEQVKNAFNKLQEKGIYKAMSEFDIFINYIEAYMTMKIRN

[3] = biological target: T1, Recombinant biotinylated Human BAFF-R …; assay: BLI, IgG on the sensor, antigen 100 to 6.25 nM, 1:1 model
[4] = biological target: T2, Recombinant biotinylated Human CD19 …; assay: phage ELISA
[5] = biological target: T3, Biotinylated Human CD27 Ligand, HIS, …; assay: phage ELISA
[6] = biological target: T4, Streptavidin, Pierce 21125; assay: phage ELISA

Binder | binding result [1] | binding result [2] | Kd [3] [nM] | koff [3] [s⁻¹] | kon [3] [M⁻¹ s⁻¹] | binding result [4] | binding result [5] | binding result [6]
B1 | no binding | no binding | 0.762 | 8.72e-05 | 114000 | – | – | –
B2 | – | – | – | – | – | no binding | no binding | no binding
